The text below walks through data of the Human Domainome abundance scans (Beltran et al. 2025).

± gives the uncertainty stated by the source.

The chains are these.
B1: Cyclin-F, residues 28 to 80; numbered along this chain, P41002 (parent)
chain: RNLTILSLPEDVLFHILKWLSVEDILAVRAVHSQLKDLVDNHASVWACASFQE
B2: Ankyrin-1, residues 1405 to 1484; numbered along this chain, P16157 (parent)
chain: MKMAVISEHLGLSWAELARELQFSVEDINRIRVENPNSLLEQSVALLNLWVIREGQNANMENLYTALQSIDRGEIVNMLE

The variants in one data set derive from B1. Put plainly: abundance fitness (aPCA) (normalised: wild type 0, dead -1); higher = more abundant; growth selection in yeast, the domain comes from the species named. As to conditions: Homo sapiens.
With I5S, the abundance fitness was -1.04 ± 0.15.
I5H: the abundance fitness was -0.771 ± 0.18.
As for I5L, the abundance fitness came to 0.12 ± 0.091.
Regarding I5Y, the abundance fitness was -0.544 ± 0.18.
On the same count and under the same terms, the result for I5W reads -0.615 ± 0.15.
Same read-out and setting: to I5P belongs -0.559 ± 0.15.
On to I5M, for which the abundance fitness is -0.254 ± 0.12.
Turning to I5D, the abundance fitness was -0.868 ± 0.14.
I5K: the abundance fitness is -0.758 ± 0.19.
With I5T, the abundance fitness is -0.697 ± 0.17.
Same read-out and setting: the result for I5G reads -0.78 ± 0.097; that for I5N, -0.907 ± 0.19.
As to I5A, the abundance fitness is -0.657 ± 0.11.
As for I5F, the abundance fitness is -0.254 ± 0.16.
In the case of I5V, the abundance fitness was -0.243 ± 0.087.
In the case of N2S, the abundance fitness is -0.129 ± 0.085.
On to N2I, for which the abundance fitness was -0.618 ± 0.23.
As to N2T, the abundance fitness was -0.168 ± 0.11.
Regarding N2R, the abundance fitness was -0.078 ± 0.085.
As for N2Y, the abundance fitness is -0.366 ± 0.14.
N2W: the abundance fitness was -0.871 ± 0.13.
N2P: the abundance fitness is -0.185 ± 0.11.
Same read-out and setting: to N2H belongs -0.065 ± 0.14.
On to N2Q, for which the abundance fitness was -0.331 ± 0.14.
N2C: the abundance fitness was -0.357 ± 0.12.
Same read-out and setting: the result for N2D reads -0.306 ± 0.19; that for N2A, -0.492 ± 0.14.
On to N2V, for which the abundance fitness is -0.089 ± 0.11.
As for N2E, the abundance fitness was -0.348 ± 0.19.
As to N2F, the abundance fitness is -0.407 ± 0.19.
N2K: the abundance fitness was -0.182 ± 0.13.
L6F: the abundance fitness is -0.356 ± 0.16.
Consider L6Q, for which the abundance fitness is -0.427 ± 0.15.
As to L6A, the abundance fitness was -0.898 ± 0.15.
As to L6V, the abundance fitness was -0.665 ± 0.13.
Still for that read-out and setting: to L6W belongs -0.678 ± 0.12; to L6D, -0.593 ± 0.29.
L6H: the abundance fitness was -0.691 ± 0.24.
Take L6C: the abundance fitness is -0.695 ± 0.13.
Regarding L6M, the abundance fitness was -0.486 ± 0.15.
L6E: the abundance fitness is -0.889 ± 0.24.
On to L6T, for which the abundance fitness is -0.486 ± 0.12.
On the same count and under the same terms, the result for L6R reads -0.83 ± 0.099.
Turning to L6P, the abundance fitness was -0.674 ± 0.16.
Still for that read-out and setting: the result for L6S reads -0.885 ± 0.13; that for L6Y, -0.423 ± 0.15.
As to L6N, the abundance fitness was -0.691 ± 0.17.
Take L6K: the abundance fitness is -0.806 ± 0.18.

Another data set covers variants of B2. Described as above. The note with it: Homo sapiens.
Take I31M: the abundance fitness was -0.524 ± 0.12.
The same measure, in the same setting: the result for S7E reads -0.261 ± 0.089.
As to S7Y, the abundance fitness was -0.242 ± 0.14.
The same measure, in the same setting: to L47T belongs -0.628 ± 0.15; to S43P, -0.721 ± 0.13; to S43T, -0.807 ± 0.21.
Turning to Q42M, the abundance fitness is -0.172 ± 0.12.
As to V44H, the abundance fitness worked out at 0.275 ± 0.078.
Same read-out and setting: to L79I belongs -0.019 ± 0.11; to E26Y, 0.064 ± 0.15; to E26T, 0.023 ± 0.094.
Still for that read-out and setting: the result for V33L reads -0.001 ± 0.061; that for R53C, -0.797 ± 0.2; that for R53Y, -0.842 ± 0.35.
In the case of R53T, the abundance fitness was -0.682 ± 0.18.
On the same count and under the same terms, the result for R53S reads -0.591 ± 0.1; that for R30F, -0.518 ± 0.18; that for R30G, -0.236 ± 0.05.
Still for that read-out and setting: the result for V76P reads -0.234 ± 0.12; that for V76H, -0.465 ± 0.19.
Turning to V76K, the abundance fitness was -0.283 ± 0.14.
On the same count and under the same terms, to W50E belongs -0.834 ± 0.23; to L67P, -0.858 ± 0.26; to D71R, 0.008 ± 0.049.
As for D71C, the abundance fitness was -0.144 ± 0.094.
Turning to L49Q, the abundance fitness is 0.014 ± 0.075.
In the case of L49R, the abundance fitness was -0.088 ± 0.049.
Take L49G: the abundance fitness was -0.11 ± 0.046.
Still for that read-out and setting: to Q56D belongs -0.139 ± 0.19; to Q56Y, -0.147 ± 0.17; to L40T, -0.081 ± 0.085.
As to L40C, the abundance fitness is -0.373 ± 0.097.
With L40V, the abundance fitness turned out to be 0.011 ± 0.052.
On the same count and under the same terms, the result for Y64D reads -0.797 ± 0.44; that for Y64H, -0.312 ± 0.17; that for Y64C, -0.24 ± 0.084.
As for A66R, the abundance fitness is -0.746 ± 0.1.
In the case of A66E, the abundance fitness is -0.85 ± 0.17.
On the same count and under the same terms, to N29E belongs -0.05 ± 0.067; to P36N, -0.104 ± 0.25; to P36Y, -0.565 ± 0.25.
Take P36G: the abundance fitness is -0.298 ± 0.071.
Turning to N48R, the abundance fitness was -0.006 ± 0.052.
Still for that read-out and setting: to N48E belongs -0.458 ± 0.11; to N48A, -0.415 ± 0.064.
On to N62E, for which the abundance fitness was -0.197 ± 0.17.
As for N62R, the abundance fitness came to 0.032 ± 0.1.
Regarding N62D, the abundance fitness came out at 0.109 ± 0.11.
Take N57Y: the abundance fitness worked out at 0.093 ± 0.21.
For the variant E20D, the abundance fitness is -0.508 ± 0.15.
In the case of E20P, the abundance fitness was -0.996 ± 0.17.
As to I28S, the abundance fitness was -0.797 ± 0.11.
Consider I28Q, for which the abundance fitness was -0.577 ± 0.22.
For the variant E74C, the abundance fitness was -0.469 ± 0.16.
N77Y: the abundance fitness was -0.215 ± 0.16.
V5D: the abundance fitness is -0.605 ± 0.14.
On to V5L, for which the abundance fitness amounted to 0.079 ± 0.052.
The same measure, in the same setting: to V5N belongs -0.606 ± 0.24; to D27H, -0.121 ± 0.17.
Consider D27E, for which the abundance fitness is -0.08 ± 0.069.
Turning to D27P, the abundance fitness was -0.822 ± 0.23.
With G73K, the abundance fitness is -0.289 ± 0.079.
As to G73D, the abundance fitness was -0.491 ± 0.11.
Regarding N37L, the abundance fitness is -0.199 ± 0.074.
Take N37F: the abundance fitness is -0.152 ± 0.23.
Same read-out and setting: the result for E80V reads -0.154 ± 0.13.
In the case of E80G, the abundance fitness turned out to be 0.126 ± 0.08.
Regarding A15C, the abundance fitness is -0.238 ± 0.13.
On to L39Q, for which the abundance fitness amounted to 0.019 ± 0.17.
Still for that read-out and setting: the result for S69C reads 0.056 ± 0.095.
On the same count and under the same terms, to S69Q belongs -0.137 ± 0.11; to W14L, -0.538 ± 0.072; to V51Y, -0.023 ± 0.2.
For the variant V51L, the abundance fitness amounted to 0.053 ± 0.077.
For L12S, the abundance fitness came to 0.243 ± 0.092.
E41N: the abundance fitness amounted to 0.162 ± 0.13.
As to L63F, the abundance fitness was -0.632 ± 0.3.
Regarding L63S, the abundance fitness was -0.637 ± 0.18.
As to L63Q, the abundance fitness is -0.075 ± 0.23.
For the variant R19V, the abundance fitness is -0.072 ± 0.057.
Regarding R19D, the abundance fitness is -0.296 ± 0.11.
Same read-out and setting: the result for R19W reads -0.268 ± 0.09.
For the variant T65S, the abundance fitness came out at 0.001 ± 0.046.
As for T65N, the abundance fitness was -0.004 ± 0.14.
Turning to A18F, the abundance fitness was -0.872 ± 0.28.
As to M78A, the abundance fitness is -0.003 ± 0.061.
On to R32N, for which the abundance fitness was -0.369 ± 0.17.
For the variant E54L, the abundance fitness is -0.567 ± 0.076.
For the variant L10R, the abundance fitness was -0.895 ± 0.16.
Turning to R72D, the abundance fitness is -0.683 ± 0.17.
With E34P, the abundance fitness is -0.992 ± 0.49.
For the variant E34S, the abundance fitness was -0.144 ± 0.12.
Take A58H: the abundance fitness is -0.241 ± 0.24.
For the variant Q68F, the abundance fitness is -0.178 ± 0.13.
Same read-out and setting: to Q68N belongs 0.003 ± 0.13.
Take A4D: the abundance fitness came out at 0.159 ± 0.12.
With A4M, the abundance fitness was -0.434 ± 0.19.
For S38V, the abundance fitness was -0.351 ± 0.13.
Still for that read-out and setting: to S38P belongs -0.822 ± 0.23.
Turning to I75E, the abundance fitness is -0.766 ± 0.23.
Turning to I75T, the abundance fitness is -0.342 ± 0.13.
In the case of V25N, the abundance fitness came out at 0.114 ± 0.14.
In the case of V25Q, the abundance fitness was -0.03 ± 0.066.
Same read-out and setting: the result for H9T reads -0.285 ± 0.16.
With H9S, the abundance fitness is -0.868 ± 0.39.
With Q22V, the abundance fitness is -0.494 ± 0.079.
On to Q22K, for which the abundance fitness was 0.011 ± 0.08.
On to G11P, for which the abundance fitness is -0.997 ± 0.49.
As for G11S, the abundance fitness is -0.616 ± 0.13.
For the variant A45C, the abundance fitness is -0.259 ± 0.034.
On to A45F, for which the abundance fitness is -0.65 ± 0.14.
Consider E16P, for which the abundance fitness was -0.091 ± 0.064.
E16L: the abundance fitness is -0.162 ± 0.054.
With E16F, the abundance fitness was -0.23 ± 0.15.
On to E16T, for which the abundance fitness is -0.222 ± 0.095.
Consider E8V, for which the abundance fitness was -0.518 ± 0.065.
On to E8I, for which the abundance fitness was -0.559 ± 0.28.
On the same count and under the same terms, the result for N59H reads -0.376 ± 0.28; that for N59A, -0.047 ± 0.078.
